Assay [1] concerns NASH Rhesus monkeys. The experiment in a line: NASH Rhesus monkeys, MRI-PDFF quantitative analysis of hepatic steatosis. As to conditions: for percentage reduction of MRI-PDFF liver fat compared to baseline: end of the treatment; for Change rate (%) of liver lipid content: (current - baseline)/baseline. The class given is in vivo. The source says:
The GE 3.0T MRI scanner (750W3T MRI, GE Healthcare) was used for liver imaging in this study. The IDEAL-IQ sequence was employed, which combines the IDEAL (Iterative Decomposition of water and fat with Echo Asymmetry and Least-squares estimation) technique with fast three-dimensional multi-echo imaging. This technique includes multi-echo water-fat separation, region-growing algorithm, as well as various imaging methods for tissue fat quantification and R2* relaxation rate. Six contrast images, including in-phase, opposed-phase, water-only, fat-only, fat fraction maps, and R2* maps, were acquired through a single breath-hold scan by collecting signals from six different echo time (TE) values. The images were reconstructed using computer algorithms to obtain the aforementioned contrast images. The IDEAL-IQ hybrid water-fat separation algorithm consisted of two steps. The first step involved complex domain reconstruction to obtain water and fat images, as well as the T2* map. The second step generated an additional set of estimated water and fat images. These two sets of images were then combined using a hybrid algorithm to generate the final water and fat images.
Prior to conducting the experiment, a Phantom test was performed. Five standard fat solutions with known fat content were prepared by modifying the body phantom preparation method used by Clare P. et al.. Pure water was used as 0% fat. Sodium dodecyl sulfate (60 mmol) was dissolved in 1 L of deionized water, heated to 50° C., and then 40 g of gelatin was added and mixed thoroughly. […] of the aforementioned solution, respectively, to prepare solutions with fat contents of 0%, 2.5%, 5%, 10%, 20%, and 100%. These solutions were filled into six 100 ml EP tubes for subsequent scanning procedures.
Phantom validation experiments were performed before each scan. All animals underwent a baseline scan and one additional scan after the completion of the drug administration, totaling two scans. The anesthesia procedure was as follows: intramuscular injection of 10 mg/kg ketamine hydrochloride, endotracheal intubation, and maintenance of anesthesia with isoflurane and oxygen using a ventilator. During the scanning process, veterinary monitoring of electrocardiogramad oxygenation, respiratory rate, etc., was performed, and veterinary supervision was provided until the animals fully recovered consciousness and resumed spontaneous respiration.
Image Post-processing and Analysis: The collected and stored Hepatic steatosis MRI images of Rhesus monkeys were analyzed using the 750W 3T MRI workstation. The liver MRI images were selected by choosing the planes with the maximum exposure of the right hepatic lobe area (layers 1-3), avoiding large blood vessels, bile ducts, and gallbladder to prevent volume effects. Regions of interest (ROI) were selected, with each ROI having an area of 90-110 mm^2. Hepatic steatosis was defined as MRI-PDFF % (Magnetic Resonance Imaging Proton Density Fat Fraction)>6% (consistent with clinical standards).
(§1) Fifteen Rhesus monkeys were divided into 3 groups, with 5 monkeys in each group. They received subcutaneous injections of 0 (solvent control, placebo control group), 0.050, or 0.150 mg/kg of YN-011 once a week for 13 weeks (QW). The 0.150 mg/kg YN-011 group received adaptive dosing (0.1 mg/kg for the first dose, followed by 0.150 mg/kg for the remaining 12 doses).

Assay [2] has as its system NASH Rhesus monkeys. The assay is described as follows: NASH Rhesus monkeys, liver biopsy histology (NAS and fibrosis scores). The class given is in vivo. Set-up: key to Fibrosis score: 0: No fibrosis observed; 1a: Mild perisinus fibrosis in zone 3; 1b: Moderate sinus fibrosis in zone 3; 1c: Periportal fibrosis; 2: Perisinus and periportal fibrosis; 3: Bridging fibrosis; 4: Cirrhosis; key to NAS Score: NAFLD activity score (NAS) from steatosis, inflammation, ballooning grades. Particulars: for Fibrosis score / NAS Score / Steatosis score: individual animals. How it is done: Amount of specimens collected: ≤2 needles, each needle with a specimen length≤1.5 cm, and the total cumulative specimen length≤3 cm.
Approximately 2 cm of the collected tissue was immediately placed in 4% buffered formalin at room temperature and fixed for at least 24 hours. After appropriate modifications, dehydration, embedding, sectioning, HE staining, and Masson staining were performed.
Tissue sections were stained with H&E and Masson stains. Pathological slides were evaluated by a pathologist according to the diagnostic and treatment guidelines for non-alcoholic fatty liver disease (NAFLD) jointly drafted by the American Association for the Study of Liver Diseases (AASLD), the American College of Gastroenterology (ACG), and the American Gastroenterological Association (AGA). The diagnostic criteria can be found in Table 2 and Table 3.
After adequate fixation of the liver biopsy specimens, they were dehydrated, infiltrated with paraffin, embedded, and sectioned (5 μm) directly.
Routine deparaffinization of the sections was performed. The sections were sequentially immersed in 100% ethanol I, 100% ethanol II, 95%, 85%, and 75% ethanol for 3 minutes each. They were then rinsed with tap water for 3 minutes, stained with hematoxylin-eosin (HE) staining solution for 12 minutes, rinsed with tap water for 5 minutes, and stained with eosin Y solution (aqueous) for 3 minutes. Dehydration was carried out rapidly with 95% ethanol, followed by two rounds of dehydration with absolute ethanol for 2-5 minutes each. The sections were then cleared with xylene twice for 10 minutes each. Neutral mounting medium was applied, and microscopic examination was performed.
Routine deparaffinization of the sections was performed. The sections were stained with Weigert's iron hematoxylin for 5-7 minutes, and simultaneously, weak acid working solution was prepared by mixing distilled water and weak acid solution in a ratio of 2:1. The sections were rinsed with weak acid working solution for 1 minute. After rinsing with phosphomolybdic acid solution for 1-2 minutes, the sections were directly placed in aniline blue staining solution for 1-2 minutes, followed by rinsing with the prepared weak acid working solution for 1 minute. Dehydration was carried out rapidly with 95% ethanol, followed by two rounds of dehydration with absolute ethanol for 2-5 minutes each. The sections were then cleared with xylene twice for 10 minutes each. Neutral mounting medium was applied, and microscopic examination was performed.
The sections were observed under a microscope (with a digital imaging system), and pathological diagnosis and photography were performed. Based on the histopathological diagnosis, the HE and Masson results were scored according to the scoring criteria for non-alcoholic fatty liver disease activity score (NAS, Table 8) and liver fibrosis staging (Table 9).
as §1
To investigate whether YN-011 treatment led to histological improvements in the liver, liver biopsy specimens were collected from all Rhesus monkeys before the first injection and on day 89 after the first injection. Liver slices were stained with HE and Masson stains for histological analysis. The degrees of steatosis, inflammation, hepatocyte ballooning, and fibrosis were scored according to the standards for NAFLD activity and NASH progression.

[3] abbreviates: 50 μg/kg group, Day 89 post-injection.
[4] abbreviates: 150 μg/kg group, Day 89 post-injection.

Values joined by “and” are separate entries in the source; they are usually repeats but may differ in a detail not shown here. Equal values may be shown once.

B1: YN-011: GLP-1 fusion protein of SEQ ID NO: 7: GLP-1 (A8G, G22E, R36G), linker peptide and IgG2/Fc domain (C222S, A330S, P331S) (protein)
chain: HGEGTFTSDVSSYLEEQAAKEFIAWLVKGGGSSGAPPPSGGGGSERKSCVECPPCPAPPVAGPSVFLFPPKPKDTLMISRTPEVTCVVVDVSHEDPEVQFNWYVDGVEVHNAKTKPREEQFNSTFRVVSVLTVVHQDWLNGKEYKCKVSNKGLPSSIEKTISKTKGQPREPQVYTLPPSREEMTKNQVSLTCLVKGFYPSDIAVEWESNGQPENNYKTTPPMLDSDGSFFLYSKLTVDKSRWQQGNVFSCSVMHEALHNHYTQKSLSLSPG
On to B1, for which the “percentage reduction of MRI-PDFF liver fat compared to baseline” value is 43.8% in the assay with NASH Rhesus monkeys [1] (50 μg/kg) and 39.7% with NASH Rhesus monkeys [1] (150 μg/kg). Moreover, the “Average ROI Baseline (%) (liver lipid content, MRI-PDFF)” value in the assay with NASH Rhesus monkeys [1] (0.05 mg/kg group, 0.05 mg/kg) was 9.0%±0.9% and 9.0 ± 0.9%; in the assay on NASH Rhesus monkeys [1] (0.15 mg/kg group, 0.15 mg/kg), 9.4%±1.5% and 9.4 ± 1.5%. The “Mean ROI at day 80 of dosing (%) (liver lipid content, MRI-PDFF)” value is 5.0%±0.2% and 5.0 ± 0.2** % with NASH Rhesus monkeys [1] (0.05 mg/kg sc QW, 0.05 mg/kg); 5.6%±1.5% and 5.6 ± 1.5** % in the assay on NASH Rhesus monkeys [1] (0.15 mg/kg sc QW, 0.15 mg/kg). The “Change rate (%) of liver lipid content” value with NASH Rhesus monkeys [1] (0.05 mg/kg sc QW) is recorded as −43.8 ± 7.4 %; in the assay on NASH Rhesus monkeys [1] (0.15 mg/kg sc QW) it was −39.7 ± 14.2 %. In addition, in the assay on NASH Rhesus monkeys [1] (after 13 weeks of weekly treatment), the “decrease of liver lipid content compared to the placebo control group” value was “approximately 40%”. Further, the Fibrosis score was 1a (2×) and 1c (2×) and 0-1a in the assay on NASH Rhesus monkeys [2] (50 μg/kg group, Baseline); 1a (2×) and 0~1a (3×) with NASH Rhesus monkeys [2] (setting [3]); 1a (2×) and 1b (2×) and 0~1a in the assay on NASH Rhesus monkeys [2] (150 μg/kg group, Baseline); 1a (2×) and 1b and 0~1a (2×) with NASH Rhesus monkeys [2] (setting [4]). Further, the “NAS Score” value with NASH Rhesus monkeys [2] (50 μg/kg group, Baseline) is 3 (2×) and 4 (3×); in the assay on NASH Rhesus monkeys [2] (setting [3]), 2 (3×) and 1 (2×); in the assay on NASH Rhesus monkeys [2] (150 μg/kg group, Baseline), 3 (2×) and 4 (3×); with NASH Rhesus monkeys [2] (setting [4]), 1 (3×) and 2 (2×). For the same molecule, the Steatosis score in the assay with NASH Rhesus monkeys [2] (50 μg/kg group, Baseline) is 1 (5%~33%) (4×) and 2 (34%~66%); in the assay with NASH Rhesus monkeys [2] (setting [3]), 0 (<5%) (4×) and 1 (5%~33%); with NASH Rhesus monkeys [2] (150 μg/kg group, Baseline), 2 (34%~66%) (4×) and 3 (>66%); in the assay on NASH Rhesus monkeys [2] (setting [4]) it was 1 (5%~33%) (3×) and 0 (<5%) (2×). Moreover, the “NAS and liver fibrosis scores (liver biopsy)” value in the assay with NASH Rhesus monkeys [2] (NASH Rhesus monkeys treated with YN-011) was “reduction in both NAS and liver fibrosis scores”.

(Values after patent publication US20250376498A1, “FUSION PROTEINS COMPRISING AN IMPROVED GLP-1 RECEPTOR AGONIST AND USES THEREOF” (Guangzhou Innogen Pharmaceutical Group Co., Ltd., priority 2022, published 2025).)
